Paper PMC10164562

Experiments:
[1] = target: BrxL(E280Q) (Acinetobacter sp. 394); experiment: cryo-EM structure; BrxL(E280Q), high molecular weight SEC fractions with co-purified host DNA, no added ATP; C1 refinement
[2] = target: wild-type BrxL (Acinetobacter sp. 394); experiment: cryo-EM structure; wild-type BrxL, high molecular weight SEC fractions, ~0.8 mg/ml, no added ATP, no bound DNA; C7 symmetry

stoichiometry N [1]	stoichiometry N [2]	Substance
12	–	BrxL(E280Q) (natural protein)
–	14	wild-type BrxL (natural protein)
